Test results taken from patent publication US20250034222.

Assay: SEC after Ni-NTA purification, area under monomer and dimer peaks

B1: WT IL-38 (residues 3-152, initiator methionine, C-terminal His6 tag) (protein)
chain: MSLPMARYYIIKYADQKALYTRDGQLLVGDPVADNCCAEKICILPNRGLARTKVPIFLGIQGGSRCLACVETEEGPSLQLEDVNIEELYKGGEEATRFTFFQSSSGSAFRLEAAAWPGWFLCGPAEPQQPVQLTKESEPSARTKFYFEQSW
% monomer upon purification: WT IL-38 forms ˜20% dimer upon purification, ˜80% monomer
